Experimental data taken from paper PMC10879569, “Major cardiovascular events under biologic psoriasis therapies: a 19-year real-world analysis of FAERS data” (Frontiers in Immunology, 2024).

Assays:
[1] = system: active psoriatic arthritis; conditions: in vivo; cited from earlier work
psoriasis = conditions: in vivo; cited from earlier work
[2] = system: patients with psoriasis indication; test: FAERS disproportionality analysis (PRR and MGPS/EBGM) of MACEs reporting versus other psoriasis treatments; type: in vivo; conditions: compared among the biological classes
Excerpt: FAERS collects […] of drug adverse events reports worldwide submitted by health professionals, consumers, and manufacturers. We chose the FAERS dataset as the data source for this study, and the analytical period was from January 2004 to December 2022. To enhance the reliability and validity of our results, only records submitted by professional health workers (e.g., physicians, pharmacists, and other health professionals) were included. To avoid potential confounders in causality assessments such as indication, the analysis was refined by retaining only reports with an expanded psoriasis indication. The raw FAERS data were cleaned, mapped, de-duplicated, and normalized by SQL server Data Mining.
The names are listed in Supplementary Table S1 .
Inclusion of reports was limited to only those cases where a biologic drug was identified as “the primary suspect” or”secondary suspect”. The control groups were comprised of the population who were indicated with psoriasis and receiving other psoriasis systemic therapies except biological agents. […]
This study is a case–non-case study. […] Disproportionality analysis (proportional reporting ratio, PRR) and MGPS were calculated to identify drug–event combinations with reporting rates higher than expected versus other drugs among patients with psoriasis indication. […]

[3] = in vivo; cited from earlier work
[4] = design: method as in PMID 22011907, PMID 21862748; conditions: 2011; cited from earlier work

In the case of Adalimumab, the “MACEs reported in the treatment group” value [1] is listed as “none”.

For Ixekizumab, the “MACEs events reported in the treatment group” value (psoriasis) is listed as “two”.

For Secukinumab, the “MACEs reported in the treatment group” value [1] is given as “two”.

With Ustekinumab the “reporting rate for the four SMQs (myocardial infarction, stroke, cardiac fatality, death)” value [2] was “highest reporting rate for all four SMQs”.

For Risankizumab, the “cardiac disorders as share of serious adverse events suspected of being caused by the drug” value [3] is given as 10.9%.

In the case of briakinumab, the “fate of clinical trials after reports of serious cardiovascular adverse events (e.g., myocardial infarction, cardiac death)” value [4] is listed as “discontinued before marketing”.
